Test results reported in US20210155689A1 (SHANGHAI PHARMAEXPLORER, published 2021).

T1: monkey LAG-3 (full length, on the cell surface) (monkey, UniProt P18627 24-525 (human entry))
T1 construct: also called HEK293-cLAG-3; monkey LAG-3 protein on the cell surface
T1 chain: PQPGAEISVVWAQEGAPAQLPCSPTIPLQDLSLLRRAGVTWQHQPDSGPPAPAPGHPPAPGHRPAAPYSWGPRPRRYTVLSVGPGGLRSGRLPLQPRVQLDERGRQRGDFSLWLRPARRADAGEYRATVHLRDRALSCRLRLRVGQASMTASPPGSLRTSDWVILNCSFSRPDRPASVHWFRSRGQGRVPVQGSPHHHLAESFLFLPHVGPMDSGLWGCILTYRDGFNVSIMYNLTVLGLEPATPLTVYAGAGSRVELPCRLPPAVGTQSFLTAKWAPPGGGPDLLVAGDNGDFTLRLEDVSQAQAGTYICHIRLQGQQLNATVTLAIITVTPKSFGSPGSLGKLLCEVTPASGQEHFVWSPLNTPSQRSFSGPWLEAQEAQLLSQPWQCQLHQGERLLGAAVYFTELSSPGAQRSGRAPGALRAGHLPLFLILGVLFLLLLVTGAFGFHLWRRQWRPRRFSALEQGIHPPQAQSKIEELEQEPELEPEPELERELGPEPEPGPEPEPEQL

T2: mouse LAG-3 protein with hFc tag (mLAG-3-hFc protein) (mouse; human, UniProt Q61790 24-442)
T2 construct: Made in HEK293 cells; also called mouse LAG-3 extracellular domain protein; not shown: human IgG Fc fragment (hFc) of the pCpC vector
T2 sequence: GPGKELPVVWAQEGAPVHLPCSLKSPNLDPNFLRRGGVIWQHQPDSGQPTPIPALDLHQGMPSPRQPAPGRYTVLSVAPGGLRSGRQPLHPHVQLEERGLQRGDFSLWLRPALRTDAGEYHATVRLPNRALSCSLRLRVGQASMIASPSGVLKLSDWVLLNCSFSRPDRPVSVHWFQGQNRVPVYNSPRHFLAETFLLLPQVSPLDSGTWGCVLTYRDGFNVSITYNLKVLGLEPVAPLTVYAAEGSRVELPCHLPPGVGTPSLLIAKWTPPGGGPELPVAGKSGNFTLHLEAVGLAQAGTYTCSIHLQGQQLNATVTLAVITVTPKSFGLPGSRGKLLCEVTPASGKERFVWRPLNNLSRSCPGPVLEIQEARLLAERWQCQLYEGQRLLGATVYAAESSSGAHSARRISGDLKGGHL

T3: human LAG-3 protein with hFc tag (hLAG-3-hFc protein) (human, UniProt P18627 23-450)
T3 construct: also called immunogen 1; LAG-3 extracellular domain protein; not shown: human IgG Fc fragment (hFc) of the pCpC vector
T3 sequence: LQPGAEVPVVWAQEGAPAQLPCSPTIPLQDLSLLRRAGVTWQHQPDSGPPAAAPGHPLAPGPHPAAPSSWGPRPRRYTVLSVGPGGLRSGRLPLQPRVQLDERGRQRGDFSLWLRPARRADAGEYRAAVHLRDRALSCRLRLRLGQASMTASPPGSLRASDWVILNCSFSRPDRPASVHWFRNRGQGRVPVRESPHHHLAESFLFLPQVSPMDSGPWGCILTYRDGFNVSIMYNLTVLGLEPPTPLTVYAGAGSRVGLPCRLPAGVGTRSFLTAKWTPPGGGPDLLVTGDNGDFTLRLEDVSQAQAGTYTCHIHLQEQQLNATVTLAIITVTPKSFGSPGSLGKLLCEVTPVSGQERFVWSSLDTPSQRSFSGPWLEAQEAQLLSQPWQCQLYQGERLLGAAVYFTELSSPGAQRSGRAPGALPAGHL


Experiments:
[1] = biological target: T1, monkey LAG-3 (full length, on the cell …); test: FACS, HEK293-cLAG-3; 0.000 nM
Text: The pIRES plasmid with the monkey-derived full-length gene was transfected into the HEK293 cell line to construct a HEK293 stable cell line containing monkey LAG-3 (herein referred to as HEK293-cLAG-3 stable cell line). The HEK293-hLAG-3 stable cell line and HEK293-cLAG-3 stable cell line were expanded in a T-75 cell culture flask to a 90% confluence. The medium was aspirated, and the cells were washed with HBSS (Hanks' Balanced Salt Solution) 1-2 times, then treated with a enzyme-free cell dissociation fluid (Versene solution: Life technology) and the cells were collected. The cells were washed with HBSS buffer for 1-2 times. After counted, the cells were diluted with HBSS to 1-2×10⁶ cells per ml, added with 1% goat serum blocking solution, incubated on ice for 20-30 minutes, and then washed with HBSS for 2 times by centrifugation. The collected cells were suspended in the FACS buffer (HBSS+1% BSA) to 2×10⁶ cells/ml, added as 100 microliters per well to a 96-well FACS reaction plate, added with 100 microliters per well of the antibody sample to be tested, incubated on ice for 1-2 hours. The plate was washed twice with the FACS buffer by centrifugation, added with 100 microliters of fluorescent (Alexa 488)-labeled secondary antibodies per well, and incubated on ice for 0.5-1.0 hours. The plate was washed 2-3 times with FACS buffer by centrifugation, added with 100 μl fixative solution (4% Paraformaldehyde) per well to suspend the cells. 5-10 minutes later, it was washed 1-2 times with FACS buffer by centrifugation. The cells were suspended with 100 microliters of FACS buffer, FACS (FACSCalibur, BD) was used for detection and the results were analyzed.

[2] = biological target: T2, mouse LAG-3 protein with hFc tag …; test: ELISA, mLAG-3-hFc coated
Procedure: (§1) The plate was sealed with plastic film and incubated overnight at 4° C. The plate was washed 2 times with the plate washing solution (PBS+0.01% Tween20) on the next day, and added with the blocking solution (PBS+0.01% Tween20+1% BSA) and blocked at room temperature for 1-2 hours. The blocking solution was poured out, and the plate was added with 50-100 μl of the antibody sample to be tested to each well, incubated at 37° C. for 1-2 hours, and washed 2-3 times with a plate washing solution (PBS+0.01% Tween20). HRP (horseradish peroxidase) labeled secondary antibody was added, and the plate was incubated at 37° C. for 1-2 hours, and washed 2-3 times with a plate washing solution (PBS+0.01% Tween20). 100 μl of TMB substrate was added to each well. After incubated at room temperature for 15-30 minutes, the plate was added with 100 μl of stop solution (1.0N HCl) to each well.

[3] = biological target: T3, human LAG-3 protein with hFc tag …; test: ELISA, hLAG-3-hFc coated; 0.0001 nM
Procedure: as §1

[4] = biological target: T3, human LAG-3 protein with hFc tag …; test: ELISA, hLAG-3-hFc coated; 6.6667 nM
Procedure: as §1

[5] = biological target: T2, mouse LAG-3 protein with hFc tag …; test: ELISA, mLAG-3-hFc coated; 0.0000 nM
Procedure: as §1

Row | Binder | Mean fluorescence intensity [1] | binding result [2] | OD450 [3] | OD450 [4] | OD450 [5]
1 | 405B8H3 (mouse antibody purified from hybridoma) (antibody, V domains shown, also called mAb103-405B8H3; 405B81-13) VH: QVQLQQSGAELVRPGASVTLSCKASGYTFTDYEMHWVKQTPVHGLEWIGATDPETGNSAYNQKFKGKAIMTADKSSSTAYMELRSLTSEDSAVYYCISTGWNDWGQGTSLTVSS VL: DIKMTQSPSSMYASLGERVTITCKASQDINSYLSWFQQKPGKSPKTLIYRADRLLDGVPSRFSGSGSGQDYSLTISSLEYGDMGIYYCLQYDEFPYTFGGGTKLEIK | 3.9 MFI |  |  |  | 
2 | 405B8H3 (LAG-3 mouse-human chimeric antibody) (antibody, V domains shown, also called mouse-human chimeric antibody 405B8H3) VH: QVQLQQSGAELVRPGASVTLSCKASGYTFTDYEMHWVKQTPVHGLEWIGATDPETGNSAYNQKFKGKAIMTADKSSSTAYMELRSLTSEDSAVYYCISTGWNDWGQGTSLTVSS VL: DIKMTQSPSSMYASLGERVTITCKASQDINSYLSWFQQKPGKSPKTLIYRADRLLDGVPSRFSGSGSGQDYSLTISSLEYGDMGIYYCLQYDEFPYTFGGGTKLEIK |  | no binding (tested: 66.6670 nM) | 0.11 OD450 | 3.54 OD450 | 0.1 OD450
3 | 105F1E10 (LAG-3 mouse-human chimeric antibody) (antibody, V domains shown) VH: EVQLQQSGPELVKPGASVKMSCRASGYTFTDFKMHWMKQSHGKSLEWIGYIAPNNGGTAYNQKFRGKATLTVNESSNTAYMELRSLTSEDSAVYYCVDWDDVDYWGQGTTLTVSS VL: DIKMTQSPSSMYASLGERVTITCKASQDINSYLSWFQQKSGKSPKTLIYRANRLVDGVPSRFSGSGSGQDYSLTISSLEYEDMGIYYCLQYVEFPLTFGAGTKLELK |  | no binding (tested: 66.6670 nM) | 0.13 OD450 | 3.53 OD450 | 0.08 OD450
4 | 105F1E10 (mouse antibody purified from hybridoma) (antibody, V domains shown, also called mAb009-105F1E10) VH: EVQLQQSGPELVKPGASVKMSCRASGYTFTDFKMHWMKQSHGKSLEWIGYIAPNNGGTAYNQKFRGKATLTVNESSNTAYMELRSLTSEDSAVYYCVDWDDVDYWGQGTTLTVSS VL: DIKMTQSPSSMYASLGERVTITCKASQDINSYLSWFQQKSGKSPKTLIYRANRLVDGVPSRFSGSGSGQDYSLTISSLEYEDMGIYYCLQYVEFPLTFGAGTKLELK | 3.9 MFI |  |  |  | 
5 | 409D4E10 (LAG-3 mouse-human chimeric antibody) (antibody, V domains shown) VH: QVQLQQSGAELVRPGASVTLSCKASGNTFTDYEMHWVKQTPVHGLEWIGATDPETDNTAYNQKFKGKAILTTDKSSSTAYMELRSLTSEDSAVYYCITSGWNDWGQGTSLTVSS VL: DIKMTQSPSSMYASLGERVTITCKASQDINSYLSWFQQKPGKSPKTLIYRANRLLDGVPSRFSGSGSGQDYSLTISSLEYEDMGIYYCLQYNEFPYTFGGGTKLEIK |  | no binding (tested: 66.6670 nM) | 0.13 OD450 | 3.73 OD450 | 0.09 OD450
6 | 409D4E10 (mouse antibody purified from hybridoma) (antibody, V domains shown, also called mAb112-409D4E10) VH: QVQLQQSGAELVRPGASVTLSCKASGNTFTDYEMHWVKQTPVHGLEWIGATDPETDNTAYNQKFKGKAILTTDKSSSTAYMELRSLTSEDSAVYYCITSGWNDWGQGTSLTVSS VL: DIKMTQSPSSMYASLGERVTITCKASQDINSYLSWFQQKPGKSPKTLIYRANRLLDGVPSRFSGSGSGQDYSLTISSLEYEDMGIYYCLQYNEFPYTFGGGTKLEIK | 3 MFI |  |  |  | 
7 | 409B11E12 (LAG-3 mouse-human chimeric antibody) (antibody, V domains shown) VH: QVQLQQSGAELVRPGASVTLSCKASGYTFTDYEMHWVKQTTVHGLEWIGATDPETSYSAYNQKFKGKAILTADKSSSTAYMELRSLTSEDSAVYYCIATGWNDWGQGTSLTVSS VL: DLKMTQSPSSMYASLGERVTITCKASQDINSYLSWFQQKPGKSPKTLIYRANRLLDGVPSRFSGSGSGQDYSLTISSLEYEDMGIYYCLQYDEFPYTFGGGTKLEIK |  | no binding (tested: 66.6670 nM) | 0.12 OD450 | 3.64 OD450 | 0.08 OD450
8 | 409B11E12 (mouse antibody purified from hybridoma) (antibody, V domains shown, also called mAb104-409B11E12) VH: QVQLQQSGAELVRPGASVTLSCKASGYTFTDYEMHWVKQTTVHGLEWIGATDPETSYSAYNQKFKGKAILTADKSSSTAYMELRSLTSEDSAVYYCIATGWNDWGQGTSLTVSS VL: DLKMTQSPSSMYASLGERVTITCKASQDINSYLSWFQQKPGKSPKTLIYRANRLLDGVPSRFSGSGSGQDYSLTISSLEYEDMGIYYCLQYDEFPYTFGGGTKLEIK | 3 MFI |  |  |  | 
9 | 556F6B8 (mouse antibody purified from hybridoma) (antibody, V domains shown, also called mAb123-556F6B8) VH: RVQLKQSGPGLVQPSQSLSITCTVSGFSLIKYGVHWVRQSPGEGLEWLGVIWRGGITDYNAAFMSRLSITKDNSKSQVFFKMNSLQADDTAIYYCAKWDGPLAMDYWGQGTSVTVSS VL: DIVMTQSHKFLSTSVGDRVSITCKASQDVGTTVAWYQQKPGQSPKLLIYWASTRHTGVPDRFTGSGSGTDFTLTISNVQSEDLADYFCQQYSSYPYTFGGGTKLEIK | 3.4 MFI |  |  |  | 
10 | 556F6B8 (LAG-3 mouse-human chimeric antibody) (antibody, V domains shown, also called 556F8B8) VH: RVQLKQSGPGLVQPSQSLSITCTVSGFSLIKYGVHWVRQSPGEGLEWLGVIWRGGITDYNAAFMSRLSITKDNSKSQVFFKMNSLQADDTAIYYCAKWDGPLAMDYWGQGTSVTVSS VL: DIVMTQSHKFLSTSVGDRVSITCKASQDVGTTVAWYQQKPGQSPKLLIYWASTRHTGVPDRFTGSGSGTDFTLTISNVQSEDLADYFCQQYSSYPYTFGGGTKLEIK |  | no binding (tested: 66.6670 nM) | 0.13 OD450 | 3.73 OD450 | 0.09 OD450
